Assay results reported in US20200164029A1 (ACCELERON PHARMA, published 2020).

T1: mENG(27-581)-hFc (R&D Systems, catalog #1320-EN) (murine; human, UniProt Q63961 27-581)
T1 construct: Bought protein; not shown: Fc domain of human IgG1
T1 sequence: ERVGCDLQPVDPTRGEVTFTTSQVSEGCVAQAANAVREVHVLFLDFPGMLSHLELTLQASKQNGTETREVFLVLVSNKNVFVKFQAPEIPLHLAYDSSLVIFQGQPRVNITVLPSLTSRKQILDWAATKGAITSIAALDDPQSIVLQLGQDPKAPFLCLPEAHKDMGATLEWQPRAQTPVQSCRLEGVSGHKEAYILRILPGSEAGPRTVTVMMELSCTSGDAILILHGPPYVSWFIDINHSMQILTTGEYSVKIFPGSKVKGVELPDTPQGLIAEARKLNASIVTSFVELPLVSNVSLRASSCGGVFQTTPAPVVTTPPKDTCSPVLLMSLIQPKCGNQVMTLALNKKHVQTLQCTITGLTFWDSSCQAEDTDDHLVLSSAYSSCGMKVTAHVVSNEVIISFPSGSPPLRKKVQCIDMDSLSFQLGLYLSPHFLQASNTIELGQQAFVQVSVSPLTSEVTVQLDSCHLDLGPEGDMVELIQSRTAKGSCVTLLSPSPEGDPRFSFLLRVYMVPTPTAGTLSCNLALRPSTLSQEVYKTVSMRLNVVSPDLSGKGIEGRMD

T2: human BMP-10 (human, UniProt O95393 317-424)
T2 construct: also called hBMP-10
T2 sequence (looked up): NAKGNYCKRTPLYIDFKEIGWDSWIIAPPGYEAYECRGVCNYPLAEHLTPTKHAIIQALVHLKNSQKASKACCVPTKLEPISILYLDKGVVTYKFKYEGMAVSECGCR

T3: human BMP-9 (human, UniProt Q9UK05 320-429)
T3 construct: also called hBMP-9
T3 sequence (looked up): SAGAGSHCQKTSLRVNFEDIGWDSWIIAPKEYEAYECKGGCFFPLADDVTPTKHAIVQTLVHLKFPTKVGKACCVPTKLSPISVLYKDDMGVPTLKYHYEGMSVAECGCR

B1: human BMP-2 (ligand, UniProt P12643 283-396, looked up)
chain: QAKHKQRKRLKSSCKRHPLYVDFSDVGWNDWIVAPPGYHAFYCHGECPFPLADHLNSTNHAIVQTLVNSVNSKIPKACCVPTELSAISMLYLDENEKVVLKNYQDMVVEGCGCR
notes: also called hBMP-2
B2: hBMP-2/7 (ligand, human)
chain 1: B1 chain
chain 2: STGSKQRSQNRSKTPKNQEALRMANVAENSSSDQRQACKKHELYVSFRDLGWQDWIIAPEGYAAYYCEGECAFPLNSYMNATNHAIVQTLVHFINPETVPKPCCAPTQLNAISVLYFDDSSNVILKKYRNMVVRACGCH
notes: read as the BMP-2/BMP-7 heterodimer
B3: human BMP-7 (ligand, UniProt P18075 293-431, looked up)
chain: B2 chain 2
notes: also called hBMP-7
B4: human TGF-β2 (ligand, UniProt P61812 303-414, looked up)
chain: ALDAAYCFRNVQDNCCLRPLYIDFKRDLGWKWIHEPKGYNANFCAGACPYLWSSDTQHSRVLSLYNTINPEASASPCCVSQDLEPLTILYYIGKTPKIEQLSNMIVKSCKCS
notes: also called hTGF-β2
B5: hENG(360-457)-hFc (Fc fusion)
chain: QTKCADDAMTLVLKKELVAHLKCTITGLTFWDPSCEAEDRGDKFVLRSAYSSCGMQVSASMISNEAVVNILSSSSPQRKKVHCLNMDSLSFQLGLYLS
notes: Expressed in COS cells, not purified; not shown: human IgG1 Fc domain
B6: hENG(360-437)-hFc (Fc fusion)
chain: QTKCADDAMTLVLKKELVAHLKCTITGLTFWDPSCEAEDRGDKFVLRSAYSSCGMQVSASMISNEAVVNILSSSSPQR
notes: as for B5
B7: human TGF-β3 (ligand, UniProt P10600 301-412, looked up)
chain: ALDTNYCFRNLEENCCVRPLYIDFRQDLGWKWVHEPKGYYANFCSGPCPYLRSADTTHSTVLGLYNTLNPEASASPCCVPQDLEPLTILYYVGRTPKVEQLSNMVVKSCKCS
notes: also called hTGF-β3
B8: hENG(258-346)-hFc (Fc fusion)
chain: YVSWLIDANHNMQIWTTGEYSFKIFPEKNIRGFKLPDTPQGLLGEARMLNASIVASFVELPLASIVSLHASSCGGRLQTSPAPIQTTPP
notes: not shown: human IgG1 Fc domain
B9: human activin A (ligand, UniProt P08476 311-426, looked up)
chain: GLECDGKVNICCKKQFFVSFKDIGWNDWIIAPSGYHANYCEGECPSHIAGTSGSSLSFHSTVINHYRMRGHSPFANLKSCCVPTKLRPMSMLYYDDGQNIIKKDIQNMIVEECGCS
notes: also called hActivin A
B10: mENG(27-581)-mFc (Fc fusion)
chain: GGERVGCDLQPVDPTRGEVTFTTSQVSEGCVAQAANAVREVHVLFLDFPGMLSHLELTLQASKQNGTETQEVFLVLVSNKNVFVKFQAPEIPLHLAYDSSLVIFQGQPRVNITVLPSLTSRKQILDWAATKGAITSIAALDDPQSIVLQLGQDPKAPFLCLPEAHKDMGATLEWQPRAQTPVQSCRLEGVSGHKEAYILRILPGSEAGPRTVTVMMELSCTSGDAILILHGPPYVSWFIDINHSMQILTTGEYSVKIFPGSKVKGVELPDTPQGLIAEARKLNASIVTSFVELPLVSNVSLRASSCGGVFQTTPAPVVTTPPKDTCSPVLLMSLIQPKCGNQVMTLALNKKHVQTLQCTITGLTFWDSSCQAEDTDDHLVLSSAYSSCGMKVTAHVVSNEVIISFPSGSPPLRKKVQCIDMDSLSFQLGLYLSPHFLQASNTIELGQQAFVQVSVSPLTSEVTVQLDSCHLDLGPEGDMVELIQSRTAKGSCVTLLSPSPEGDPRFSFLLRVYMVPTPTAGTLSCNLALRPSTLSQEVYKTVSMRLNIVSPDLSGKGTGGGEPRVPITQNPCPPLKECPPCAAPDLLGGPSVFIFPPKIKDVLMISLSPMVTCVVVDVSEDDPDVQISWFVNNVEVHTAQTQTHREDYNSTLRVVSALPIQHQDWMSGKEFKCKVNNRALPSPIEKTISKPRGPVRAPQVYVLPPPAEEMTKKEFSLTCMITGFLPAEIAVDWTSNGRTEQNYKNTATVLDSDGSYFMYSKLRVQKSTWERGSLFACSVVHEGLHNHLTTKTISRSLGK
notes: also called mu-Endoglin; soluble murine ENG fusion protein
B11: hENG(26-586) (R&D Systems, catalog #1097-EN) (receptor)
chain: ETVHCDLQPVGPERGEVTYTTSQVSKGCVAQAPNAILEVHVLFLEFPTGPSQLELTLQASKQNGTWPREVLLVLSVNSSVFLHLQALGIPLHLAYNSSLVTFQEPPGVNTTELPSFPKTQILEWAAERGPITSAAELNDPQSILLRLGQAQGSLSFCMLEASQDMGRTLEWRPRTPALVRGCHLEGVAGHKEAHILRVLPGHSAGPRTVTVKVELSCAPGDLDAVLILQGPPYVSWLIDANHNMQIWTTGEYSFKIFPEKNIRGFKLPDTPQGLLGEARMLNASIVASFVELPLASIVSLHASSCGGRLQTSPAPIQTTPPKDTCSPELLMSLIQTKCADDAMTLVLKKELVAHLKCTITGLTFWDPSCEAEDRGDKFVLRSAYSSCGMQVSASMISNEAVVNILSSSSPQRKKVHCLNMDSLSFQLGLYLSPHFLQASNTIEPGQQSFVQVRVSPSVSEFLLQLDSCHLDLGPEGGTVELIQGRAAKGNCVSLLSPSPEGDPRFSFLLHFYTVPIPKTGTLSCTVALRPKTGSQDQEVHRTVFMRLNIISPDLSGCTSKG
notes: also called soluble human ENG extracellular domain

Tests used:
[1] = biological target: B11; test: SPR (Biacore), immobilized construct, soluble ligand
[2] = biological target: T1, mENG(27-581)-hFc (R&D Systems, catalog …); test: SPR (Biacore), captured construct, soluble ligand
human BMP-10 [3] = biological target: T2, human BMP-10; test: SPR, captured hENG-hFc, soluble ligand
human BMP-9 [4] = biological target: T3, human BMP-9; test: SPR, captured hENG-hFc, soluble ligand
VEGF = biological target: T4, VEGF (human, UniProt P15692-4 27-191, limits assumed); test: SPR
T4 construct: also called vascular endothelial growth factor
T4 sequence (P15692 other isoform, or with tags, fused parts or gaps limits assumed): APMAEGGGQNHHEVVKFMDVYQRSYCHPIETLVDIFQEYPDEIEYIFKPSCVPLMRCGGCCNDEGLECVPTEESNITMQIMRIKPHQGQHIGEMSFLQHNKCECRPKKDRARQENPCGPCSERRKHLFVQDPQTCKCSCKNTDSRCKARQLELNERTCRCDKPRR

human TGF-β3 = biological target: B7; test: refers back to Example 3 (SPR)
human TGF-β2 = biological target: B4; test: refers back to Example 3 (SPR)
human TGF-β1 = biological target: T5, human TGF-β1 (human, UniProt P01137 279-390); test: refers back to Example 3 (SPR)
T5 construct: also called hTGF-β1
T5 sequence (P01137 279-390 limits assumed): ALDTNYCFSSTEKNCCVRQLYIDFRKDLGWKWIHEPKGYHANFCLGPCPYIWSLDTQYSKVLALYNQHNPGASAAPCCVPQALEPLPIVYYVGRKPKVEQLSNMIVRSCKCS

human BMP-9 [5] = biological target: T3, human BMP-9; test: SPR competition: hENG(26-586) 0-50 nM premixed with 10 nM BMP-9, binding to captured ALK1
Excerpt: (§1) BMP-9 and BMP-10 are high-affinity ligands at the type I receptor ALK1 (activin receptor-like kinase 1). […] Similar results were obtained with BMP-10 (FIG. 21).

human BMP-10 [6] = biological target: T2, human BMP-10; test: SPR competition: hENG(26-586) 0-50 nM premixed with 10 nM BMP-10, binding to captured ALK1
Excerpt: as §1

human BMP-9 [7] = biological target: T3, human BMP-9; test: SPR competition: hENG(26-586) premixed with BMP-9, binding to captured ALK1-hFc
Excerpt: as §1

Binder: B1
binding result [1]: no binding (tested: 25 nM)
binding result [2]: no binding (tested: 25 nM)

Binder: B2
binding result [1]: no binding (tested: 25 nM)
binding result [2]: no binding (tested: 25 nM)

Binder: B3
binding result [1]: no binding (tested: 25 nM)
binding result [2]: no binding (tested: 25 nM)

Binder: B4
binding result [1]: no binding (tested: 25 nM)
binding result [2]: no binding (tested: 10 nM)

Binder: B5
binding result (human BMP-10 [3]): no binding (tested: 100 nM)
binding result (human BMP-9 [4]): no binding (tested: 100 nM)

Binder: B6
binding result (human BMP-10 [3]): no binding (tested: 100 nM)
binding result (human BMP-9 [4]): no binding (tested: 100 nM)

Binder: B7
binding result [1]: no binding (tested: 25 nM)
binding result [2]: no binding (tested: 10 nM)

Binder: B8
binding result (human BMP-10 [3]): no binding (tested: 100 nM)
binding result (human BMP-9 [4]): no binding (tested: 100 nM)

Binder: B9
binding result [1]: no binding (tested: 25 nM)
binding result [2]: no binding (tested: 25 nM)

Binder: B10
binding result (VEGF): no binding
binding result (human TGF-β3): no binding
binding result (human TGF-β2): no binding
binding result (human TGF-β1): no binding

Binder: B11
IC50 (human BMP-9 [5]): 9.7 nM
IC50 (human BMP-10 [6]): 6.3 nM
IC50 (human BMP-9 [7]): < 10 nM
